Common to all, as to experiment: ELISA; coated glycoprotein, biotin-labeled lectin 1 µg/mL; grade of A450 reaction value (Low 0.1 to 0.2, Moderate 0.2 to 0.5, High 0.5 or more)
(An ELISA detects its analyte on a solid surface through an enzyme-linked reagent.)

Assay [1] concerns the target α-Fetoprotein (Homo sapiens (Human)) (UniProt P02771).
The target of assay [2] is α-Fetoprotein L3 (Homo sapiens (Human)) (UniProt P02771).
Assay [3] has as its target Prostate-specific antigen (Homo sapiens (Human)) (UniProt P07288).
Assay [4] addresses Immunoglobulin G.
Assay [5] concerns the target Immunoglobulin M.
Assay [6] deals with Immunoglobulin A.
Assay [7] deals with α2-Macroglobulin.
α2-Macroglobulin, sequence (P01023 24-1474): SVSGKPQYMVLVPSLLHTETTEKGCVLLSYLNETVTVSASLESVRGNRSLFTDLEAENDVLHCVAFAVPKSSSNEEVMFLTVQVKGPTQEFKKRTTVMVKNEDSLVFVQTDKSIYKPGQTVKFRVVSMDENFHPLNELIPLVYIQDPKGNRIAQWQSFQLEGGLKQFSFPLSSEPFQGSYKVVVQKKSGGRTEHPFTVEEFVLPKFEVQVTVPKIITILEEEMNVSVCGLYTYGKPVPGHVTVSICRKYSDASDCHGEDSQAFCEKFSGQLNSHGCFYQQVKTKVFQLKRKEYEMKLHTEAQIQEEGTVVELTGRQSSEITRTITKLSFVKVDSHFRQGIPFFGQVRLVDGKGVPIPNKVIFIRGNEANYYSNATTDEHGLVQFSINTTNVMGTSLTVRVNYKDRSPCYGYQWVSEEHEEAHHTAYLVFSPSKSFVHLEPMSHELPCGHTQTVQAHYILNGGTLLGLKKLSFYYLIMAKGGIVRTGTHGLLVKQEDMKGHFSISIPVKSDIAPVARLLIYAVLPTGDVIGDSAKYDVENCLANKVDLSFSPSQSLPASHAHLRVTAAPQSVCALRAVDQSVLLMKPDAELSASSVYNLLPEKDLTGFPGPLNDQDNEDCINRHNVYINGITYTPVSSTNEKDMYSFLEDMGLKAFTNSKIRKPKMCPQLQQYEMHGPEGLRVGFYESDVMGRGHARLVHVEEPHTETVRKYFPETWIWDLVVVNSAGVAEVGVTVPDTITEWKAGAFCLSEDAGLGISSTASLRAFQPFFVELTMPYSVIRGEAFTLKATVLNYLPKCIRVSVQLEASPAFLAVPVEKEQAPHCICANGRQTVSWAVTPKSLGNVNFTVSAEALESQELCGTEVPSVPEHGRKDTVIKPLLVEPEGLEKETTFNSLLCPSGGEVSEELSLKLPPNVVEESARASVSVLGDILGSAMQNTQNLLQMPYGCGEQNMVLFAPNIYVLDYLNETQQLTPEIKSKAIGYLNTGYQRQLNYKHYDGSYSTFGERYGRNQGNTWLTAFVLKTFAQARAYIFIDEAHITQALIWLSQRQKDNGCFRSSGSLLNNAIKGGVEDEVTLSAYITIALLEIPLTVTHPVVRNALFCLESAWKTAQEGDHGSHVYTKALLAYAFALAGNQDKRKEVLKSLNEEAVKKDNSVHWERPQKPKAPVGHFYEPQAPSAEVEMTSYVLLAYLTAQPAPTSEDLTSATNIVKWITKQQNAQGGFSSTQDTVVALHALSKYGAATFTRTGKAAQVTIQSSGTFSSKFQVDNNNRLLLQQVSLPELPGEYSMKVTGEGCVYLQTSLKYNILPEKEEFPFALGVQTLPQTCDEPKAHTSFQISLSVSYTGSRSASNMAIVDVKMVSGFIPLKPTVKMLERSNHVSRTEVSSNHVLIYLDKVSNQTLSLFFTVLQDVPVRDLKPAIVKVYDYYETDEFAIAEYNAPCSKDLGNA

α-Fetoprotein L3 (Homo sapiens (Human)), sequence (P02771 19-609 limits assumed, form in doubt): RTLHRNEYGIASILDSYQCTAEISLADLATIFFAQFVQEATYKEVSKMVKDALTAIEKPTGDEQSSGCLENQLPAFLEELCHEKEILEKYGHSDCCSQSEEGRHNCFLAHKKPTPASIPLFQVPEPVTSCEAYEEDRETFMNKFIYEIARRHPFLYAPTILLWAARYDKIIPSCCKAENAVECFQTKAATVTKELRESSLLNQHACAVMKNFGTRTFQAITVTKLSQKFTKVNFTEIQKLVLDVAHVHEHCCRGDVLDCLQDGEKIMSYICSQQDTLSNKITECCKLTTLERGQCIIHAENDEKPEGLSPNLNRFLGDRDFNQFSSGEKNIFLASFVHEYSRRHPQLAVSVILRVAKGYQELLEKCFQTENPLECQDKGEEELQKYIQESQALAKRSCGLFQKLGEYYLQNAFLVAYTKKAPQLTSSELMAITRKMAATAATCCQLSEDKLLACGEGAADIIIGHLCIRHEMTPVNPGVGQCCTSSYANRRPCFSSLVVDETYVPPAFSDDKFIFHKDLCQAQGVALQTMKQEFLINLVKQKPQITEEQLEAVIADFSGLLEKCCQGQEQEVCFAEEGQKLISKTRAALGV
Prostate-specific antigen (Homo sapiens (Human)), sequence (P07288 25-261 limits assumed, form in doubt): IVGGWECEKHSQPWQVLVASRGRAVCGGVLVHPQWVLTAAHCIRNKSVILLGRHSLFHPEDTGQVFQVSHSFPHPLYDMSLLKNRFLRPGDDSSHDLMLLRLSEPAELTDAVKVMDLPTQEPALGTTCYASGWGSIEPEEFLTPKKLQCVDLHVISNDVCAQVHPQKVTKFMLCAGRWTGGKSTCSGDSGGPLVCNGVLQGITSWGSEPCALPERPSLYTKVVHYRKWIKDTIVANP
α-Fetoprotein (Homo sapiens (Human)), sequence (P02771 19-609 limits assumed, form in doubt): as the sequence (P02771 19-609 limits assumed, form in doubt) above

With “Aleuria aurantia lectin (from UniProt P18891 2-313)”, the results for the reaction value (absorbance at 450 nm minus blank) in assay [1], in assay [2] and in assay [3] were 0.2 to 0.5 od, greater than 0.5 od and 0.2 to 0.5 od, respectively.
Turning to “Lens culinaris lectin (from UniProt P02870 31-210; P02870 218-269)”, in assay [2], the reaction value (absorbance at 450 nm minus blank) is greater than 0.5 od.
Turning to Pholiota terrestris Overholts lectin, the reaction value (absorbance at 450 nm minus blank) in assay [4] is 0.1 to 0.2 od; in assay [5], 0.1 to 0.2 od; in assay [6], 0.2 to 0.5 od; in assay [7], 0.2 to 0.5 od; in assay [2] it was greater than 0.5 od; in assay [3], greater than 0.5 od.

The record behind these values is patent US20120244563A1.
